Measurements as given in patent publication US20250043012A1.

Target: human EGFR (protein used in SPR, ELISA and BLI) (human) (UniProt P00533)
Assay: SPR

koff: 5e-05 s⁻¹
kon: 280000 M⁻¹ s⁻¹
B1: ER-2b (antibody, part only; not given: Constant region, common trastuzumab light chain, part only)
heavy chain, part: EVQLVESGGGLVQPGGSLRLSCAASGFNIYYAAMHWVRQAPGKGLEWVAFISPYYSYTSYADSVKGRFTISADTSKNTAYLQMNSLRAEDTAVYYCARYFHSSWYESSSPRAYYPGMDYWGQGTLVTVSS
